Laboratory results: the supplement of paper PMC10567573

B1: RPAIN (parent)
chain: ISEYEKSLQFDEKCLSIMLAEWEA

Variants of: B1
Test: protein stability index of a GFP-peptide fusion (GPS, HEK-293T) (PSI 1-6); higher = more stable
Conditions: c terminus: a fixed tail appended
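Also: lentivirally expressed fusions sorted by FACS into six bins by GFP to DsRed ratio, PSI derived from sequencing read proportions per bin multiplied by bin number.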

Point of comparison: ISEYEKSLCFDEKCLSIMLAEWEA, protein stability index 1.64. Against it:
- ISEYEKSLQFDEKCLSIMLIEWEA — lower, 1.48
- ISEYEKSLQFDEKCLSIMLMEWEA — higher, 2.49
- ISEYEKSLQFDEKCLSIMLEEWEA — higher, 1.98
- ISEYEKSLQFDEKCLSINLAEWEA — higher, 2.13
- ISEYEKSLQFDEKCLSIRLAEWEA — higher, 1.93
- ISEYEKSLQFDEKCLSIWLAEWEA — higher, 2.52
- ISEYEKSLQFDEKCLSIDLAEWEA — higher, 3.26
- ISEYEKSLQFDEKCLSIILAEWEA — lower, 1.4
- ISEYEKSLQFDEKCLSIYLAEWEA — higher, 2.39
- ISEYEKSLQFDEKCLSIELAEWEA — higher, 1.84
- ISEYEKSLQFDEKCLSIALAEWEA — higher, 1.86
- ISEYEKSLQFDEKCLSIGLAEWEA — higher, 3.33
- ISEYEKSLQFDEKCLSIVLAEWEA — lower, 1.51
- ISEYEKSLQFDEKCLSIHLAEWEA — higher, 2.41
- ISEYEKSLQFDEKCLSIMPAEWEA — higher, 4.37
- ISEYEKSLQFDEKCLSIMTAEWEA — higher, 3.18
- ISEYEKSLQFDEKCLSIMFAEWEA — higher, 3.03
- ISEYEKSLQFDEKCLSIMNAEWEA — higher, 3.73
- ISEYEKSLQFDEKCLSIMIAEWEA — higher, 2.77
- ISEYEKSLQFDEKCLSIMKAEWEA — higher, 3.58
- ISEYEKSLQFDEKCLSIMRAEWEA — higher, 2.39
- ISEYEKSLQFDEKCLSIMHAEWEA — higher, 3.27
- ISEYEKSLQFDEKCLSIMQAEWEA — higher, 3.6
- ISEYYKSLQFDEKCLSIMLAEWEA — higher, 2.3
- ISEYVKSLQFDEKCLSIMLAEWEA — higher, 2.51
- ISEYMKSLQFDEKCLSIMLAEWEA — higher, 2.08
- ISEYWKSLQFDEKCLSIMLAEWEA — lower, 1.23
- ISEYQKSLQFDEKCLSIMLAEWEA — higher, 1.92
- ISEYDKSLQFDEKCLSIMLAEWEA — lower, 1.55
- ISEYKKSLQFDEKCLSIMLAEWEA — higher, 2.81
- ISEYSKSLQFDEKCLSIMLAEWEA — higher, 1.82
- ISEYEKSLQFDENCLSIMLAEWEA — lower, 1.19
- ISEYEKSLQFDEVCLSIMLAEWEA — higher, 1.7
- ISEYEKSLQFDEQCLSIMLAEWEA — lower, 1.47
- ISEYEKSLQFDETCLSIMLAEWEA — lower, 1.44
- ISEYEKSLQFDEECLSIMLAEWEA — higher, 1.71
- ISEYEKSLQFDEHCLSIMLAEWEA — higher, 1.73
- ISEYEKRLQFDEKCLSIMLAEWEA — higher, 1.69
- ISEYEKFLQFDEKCLSIMLAEWEA — higher, 2.08
- ISEYEKCLQFDEKCLSIMLAEWEA — higher, 2.46
- ISEYEKNLQFDEKCLSIMLAEWEA — higher, 1.8
- ISEYEKPLQFDEKCLSIMLAEWEA — lower, 1.47
- ISEYEKSLQFDEKCLSIMLAEWEY — lower, 1.25
- ISEYEKSLQFDEKCLSIMLAEWEP — higher, 2.49
- ISEYEKSLQFDEKCLSIMLAEWER — higher, 1.73
- ISEYEKSLQFDEKCLSIMLAEWEN — higher, 2.32
- ISEYEKSLQFLEKCLSIMLAEWEA — higher, 3.63
- ISEYEKSLQADEKCLSIMLAEWEA — higher, 3.21
- ISEYEKSLQQDEKCLSIMLAEWEA — higher, 3.51
- ISEYEKSLQYDEKCLSIMLAEWEA — higher, 1.97
- ISEYEKSLQIDEKCLSIMLAEWEA — higher, 2.93
- ISEYEKSLQPDEKCLSIMLAEWEA — higher, 3.43
- DSEYEKSLQFDEKCLSIMLAEWEA — higher, 2.6
- HSEYEKSLQFDEKCLSIMLAEWEA — higher, 2.15
- MSEYEKSLQFDEKCLSIMLAEWEA — higher, 2.42
- ISEYEKSHQFDEKCLSIMLAEWEA — higher, 2.65
- ISEYEKSIQFDEKCLSIMLAEWEA — higher, 2.79
- ISEYEKSMQFDEKCLSIMLAEWEA — higher, 2.29
- ISWYEKSLQFDEKCLSIMLAEWEA — higher, 3.76
- ISMYEKSLQFDEKCLSIMLAEWEA — higher, 1.82
- ISYYEKSLQFDEKCLSIMLAEWEA — higher, 3.23
- ISHYEKSLQFDEKCLSIMLAEWEA — higher, 1.99
- ISDYEKSLQFDEKCLSIMLAEWEA — higher, 1.81
- ILEYEKSLQFDEKCLSIMLAEWEA — higher, 2.1
- IDEYEKSLQFDEKCLSIMLAEWEA — higher, 1.97
- IYEYEKSLQFDEKCLSIMLAEWEA — higher, 2.54
- IMEYEKSLQFDEKCLSIMLAEWEA — higher, 2.15
- IIEYEKSLQFDEKCLSIMLAEWEA — higher, 1.79
- ITEYEKSLQFDEKCLSIMLAEWEA — higher, 1.91
- IQEYEKSLQFDEKCLSIMLAEWEA — higher, 1.81
- ISEYEKSLQFDIKCLSIMLAEWEA — higher, 1.67
- ISEYEKSLQFDNKCLSIMLAEWEA — higher, 2.47
- ISEYEKSLQFDPKCLSIMLAEWEA — higher, 1.76
- ISEYEKSLQFDRKCLSIMLAEWEA — higher, 2.33
- ISEYEKSLQFDGKCLSIMLAEWEA — higher, 2.27
- ISEYEKSLQFDTKCLSIMLAEWEA — higher, 1.67
- ISEAEKSLQFDEKCLSIMLAEWEA — higher, 2.48
- ISECEKSLQFDEKCLSIMLAEWEA — higher, 1.75
- ISEEEKSLQFDEKCLSIMLAEWEA — higher, 2.13
- ISEFEKSLQFDEKCLSIMLAEWEA — higher, 1.86
- ISEHEKSLQFDEKCLSIMLAEWEA — higher, 2.06
- ISEYEKSLVFDEKCLSIMLAEWEA — lower, 1.25
- ISEYEKSLHFDEKCLSIMLAEWEA — higher, 1.85
- ISEYEKSLMFDEKCLSIMLAEWEA — higher, 2.03
- ISEYEKSLRFDEKCLSIMLAEWEA — higher, 2.08
- ISEYEKSLEFDEKCLSIMLAEWEA — higher, 1.78
- ISEYEKSLQFDEKCLSHMLAEWEA — higher, 2.51
- ISEYEKSLQFDEKCLSPMLAEWEA — higher, 3.53
- ISEYEKSLQFDEKCLSRMLAEWEA — higher, 2.15
- ISEYEKSLQFDEKCLSKMLAEWEA — higher, 2.08
- ISEYEKSLQFDEKCLSNMLAEWEA — higher, 2.48
- ISEYEKSLQFDEKCLSEMLAEWEA — higher, 2.16
- ISEYEKSLQFDEKCLSGMLAEWEA — higher, 2.8
